Laboratory results published in paper PMC11231100 (2024).

Assays:
CD47 [1] = molecular target: T1, CD47 (human (endogenous in Jurkat and Reh), UniProt Q08722 19-323); assay: FACS; competition with SIRPα-mFc on Reh cells (CD38high/CD47+)
CD47 [2] = molecular target: T1, CD47; assay: FACS; competition with SIRPα-mFc on Jurkat cells (CD38low/CD47+)

IC50 (CD47 [1]): 0.216 µg/mL | IC50 (CD47 [2]): 0.0977 µg/mL
B1: IMM01 (SIRPα Fc fusion protein) (Fc fusion)
chain: EEELQVIQPDKSVLVAAGETATLRCTATSLIPVGPIQWFRGAGPGRELIYNQKEGHFPRVTTVSDLTKRNNMDFSIRIGNITPADAGTYYCVKFRKGSPDDVEFKSGAGTELSVRAKP
modifications: SIRPα IgV domain (SD1), limits by convention (complete V domain through its last strand, just before the first C1 domain); dimeric through an Fc that is left out; allelic variant and any engineered substitution not given
